The target of experiment [1] is HLA-A*02:01. In words: IEDB peptide-MHC binding, purified MHC/competitive/fluorescence; ≥ and ≤ were set here for values at or beyond the usual limits of such assays.
For another experiment, the target named is HLA-A*02:02. Nature of the experiment: IEDB peptide-MHC binding, purified MHC/competitive/radioactivity; filed as Kd, often an IC50 or EC50 that approximates it; ≥ and ≤ were set here for values at or beyond the usual limits of such assays.
The target in the next experiment is HLA-A*02:03. The description is as above.
For the next experiment, the target named is HLA-A*02:06. The description is as above.
The target in another experiment is HLA-B*35:01. The description is as above.
Another experiment deals with HLA-B*53:01. Described as above.
Another experiment concerns the target HLA-B*51:01. Described as above.
The target of another experiment is HLA-B*15:01. In words: IEDB peptide-MHC binding, purified MHC/direct/fluorescence; filed as Kd, often an IC50 or EC50 that approximates it; ≥ and ≤ were set here for values at or beyond the usual limits of such assays. The conditions noted are these: source organism: Haemophilus influenzae.
The target of another experiment is HLA-B*58:01. The experiment is described as above. As to conditions: source organism: Haemophilus influenzae.
In another experiment the target is HLA-A*26:01. In words: IEDB peptide-MHC binding, purified MHC/competitive/fluorescence; filed as Kd, often an IC50 or EC50 that approximates it; ≥ and ≤ were set here for values at or beyond the usual limits of such assays. As to conditions: source organism: Yersinia pestis Nepal516.
Experiment [2] concerns the target HLA-A*02:01. The experiment is described as above. The conditions noted are these: source organism: Vaccinia virus WR.
Setting [3] is: source organism: Zaire ebolavirus.
The mark [4] stands for this setting: source organism: SARS coronavirus Tor2.
[5] abbreviates: source organism: Dengue virus 4 Philippines/H241/1956.
The mark [6] stands for this setting: source organism: Lymphocytic choriomeningitis virus (strain Armstrong).
The mark [7] stands for this setting: source organism: Dengue virus 2 Jamaica/1409/1983.
[8] abbreviates: source organism: Vaccinia virus WR.
[9] abbreviates: source organism: Vaccinia virus.
The mark [10] stands for this setting: source organism: Mammarenavirus machupoense.

One may read the IC50 as the concentration that gives 50% inhibition. In the experiment with HLA-A*02:01 [1] (setting [3]), MKDEPVVFS returned an IC50 of at least 420000 nM.

Usually Kd stands for the constant that tells how readily two partners part at equilibrium. In the case of MLFTKFFYL, the Kd with HLA-A*02:02 (setting [4]) came to 0.0849 nM; in the experiment with HLA-A*02:03 (setting [4]), 17.2 nM; in the experiment with HLA-A*02:06 (setting [4]), 1.43 nM.

Consider MPTVIEELEK, for which the equilibrium dissociation constant (Kd) was 2620 nM with HLA-B*35:01 (setting [5]) and 5380 nM with HLA-B*53:01 (setting [5]).

As for MSCDDVVFGI, the values for the Kd with HLA-A*02:02 (setting [6]), in the experiment with HLA-A*02:03 (setting [6]) and with HLA-A*02:06 (setting [6]) were 1040 nM, 12100 nM and 249 nM, respectively.

Regarding NETEYLFEV, the IC50 in the experiment with HLA-A*02:01 [1] (setting [3]) is 43600 nM.

Regarding NLAPHLLLIV, the figures for the Kd with HLA-A*02:02 (setting [4]), in the experiment with HLA-A*02:03 (setting [4]) and in the experiment with HLA-A*02:06 (setting [4]) were 5.1 nM, 1.07 nM and 125 nM, respectively.

For NNLEEICQL, the IC50 with HLA-A*02:01 [1] (setting [3]) is at least 225000 nM.

Take NPTVDGITV: the Kd with HLA-B*51:01 (setting [7]) amounted to 6300 nM.

As to NTCKPTILAT, the Kd in the experiment with HLA-A*02:02 (setting [8]) turned out to be 460 nM; with HLA-A*02:03 (setting [8]) it was 248 nM; with HLA-A*02:06 (setting [8]) it was 3920 nM.

With NTIAVITETI, the dissociation constant (Kd) in the experiment with HLA-A*02:02 (setting [8]) is 50.2 nM; with HLA-A*02:03 (setting [8]), 56.3 nM; in the experiment with HLA-A*02:06 (setting [8]) it was 784 nM.

Take NTLISSDGA: the results for the Kd in the experiment with HLA-A*02:02 (setting [8]), in the experiment with HLA-A*02:03 (setting [8]) and with HLA-A*02:06 (setting [8]) were 7410 nM, 3570 nM and at least 49400 nM, respectively.

QPENLEYTI: in the experiment with HLA-B*53:01 (source organism: Dengue virus 2 16681-PDK53), the equilibrium dissociation constant (Kd) was 28 nM.

The sequence RLEELLPAV gave an IC50 in the experiment with HLA-A*02:01 [1] (setting [3]) of 1850 nM.

RNLNVTTQS: in the experiment with HLA-A*02:01 [1] (setting [9]), the half-maximal inhibitory concentration (IC50) is at least 558000 nM.

With RSLETDLRS, the IC50 with HLA-A*02:01 [1] (setting [9]) was at least 158000 nM.

As to RTWKVLSIMA, the Kd is at least 24000 nM with HLA-A*02:02 (setting [8]), 6050 nM with HLA-A*02:03 (setting [8]) and 5750 nM with HLA-A*02:06 (setting [8]).

In the case of SAIALGVAT, in the experiment with HLA-A*02:01 [1] (setting [3]), the half-inhibitory concentration (IC50) was at least 242000 nM.

Take SIMSMMNIT: the Kd with HLA-A*02:02 (setting [8]) turned out to be 4970 nM; in the experiment with HLA-A*02:03 (setting [8]), 681 nM; in the experiment with HLA-A*02:06 (setting [8]), 1760 nM.

For the sequence SLVITYCLVT, the dissociation constant (Kd) worked out at 286 nM with HLA-A*02:02 (setting [8]), 566 nM with HLA-A*02:03 (setting [8]) and 824 nM with HLA-A*02:06 (setting [8]).

On to SQKHFDTWW, for which the Kd with HLA-B*15:01 turned out to be 473 nM; with HLA-B*58:01, 3040 nM.

In the case of SSWAVHWFS, the results for the Kd with HLA-A*02:02 (setting [10]), in the experiment with HLA-A*02:03 (setting [10]) and in the experiment with HLA-A*02:06 (setting [10]) were 4640 nM, at least 78100 nM and at least 46800 nM, respectively.

Consider STAEQLSKYV, for which the Kd with HLA-A*02:02 (setting [8]) stood at 1060 nM; with HLA-A*02:03 (setting [8]), 1870 nM; with HLA-A*02:06 (setting [8]), 697 nM.

Turning to STDQDTMLFA, the Kd came out at 646 nM with HLA-A*02:02 (setting [8]), 4700 nM with HLA-A*02:03 (setting [8]) and 2020 nM with HLA-A*02:06 (setting [8]).

Regarding SVNASKTINA, the Kd in the experiment with HLA-A*02:02 (setting [8]) is 17300 nM; with HLA-A*02:03 (setting [8]), 731 nM; in the experiment with HLA-A*02:06 (setting [8]), at least 28800 nM.

Consider TAGNKVDVDI, for which the dissociation constant Kd is 11000 nM in the experiment with HLA-A*02:02 (setting [8]), 3500 nM in the experiment with HLA-A*02:03 (setting [8]) and at least 38000 nM in the experiment with HLA-A*02:06 (setting [8]).

As for TPKGAVMDI, the Kd with HLA-B*51:01 (setting [5]) is 4220 nM.

As to TPQDNQLAY, the Kd with HLA-B*35:01 (source organism: Dengue virus 1 Brazil/97-11/1997) came out at 10.3 nM.

Consider TQWSLFFFV, for which the Kd turned out to be 79.6 nM with HLA-A*02:02 (setting [4]), 540 nM with HLA-A*02:03 (setting [4]) and 0.812 nM with HLA-A*02:06 (setting [4]).

In the experiment with HLA-A*26:01, TTRGETLFY showed a Kd of 34.1 nM.

TVLTSVDIET: the equilibrium dissociation constant (Kd) with HLA-A*02:02 (setting [8]) amounted to 1720 nM; in the experiment with HLA-A*02:03 (setting [8]) it was 915 nM; with HLA-A*02:06 (setting [8]), 961 nM.

As for VAVSFVTLI, the dissociation constant (Kd) with HLA-B*51:01 (setting [7]) was 431 nM.

For the sequence VISTIANSNI, the Kd amounted to 282 nM in the experiment with HLA-A*02:02 (setting [8]), 845 nM with HLA-A*02:03 (setting [8]) and 5160 nM with HLA-A*02:06 (setting [8]).

Turning to VIVENDNVI, the Kd with HLA-A*02:02 (setting [8]) was determined as 15500 nM; with HLA-A*02:03 (setting [8]), 19500 nM; with HLA-A*02:06 (setting [8]) it was 7230 nM.

Take VPLLAMGCY: in the experiment with HLA-B*35:01 (setting [5]), the Kd is 112 nM.

As to VPPLPLFIF, in the experiment with HLA-B*51:01 (source organism: Dengue virus 3 Martinique/1243/1999), the Kd was 3580 nM.

Regarding WIPYFGPGA, the half-maximal inhibitory concentration (IC50) in the experiment with HLA-A*02:01 [1] (source organism: Sudan ebolavirus) stood at 1460 nM.

YALEPRKEI: the dissociation constant Kd came to 3700 nM with HLA-A*02:02 (setting [8]), 7070 nM with HLA-A*02:03 (setting [8]) and 4110 nM in the experiment with HLA-A*02:06 (setting [8]).

On to YGTLIIDEV, for which the half-maximal inhibitory concentration (IC50) in the experiment with HLA-A*02:01 [1] (source organism: Variola virus) came to 3320 nM.

As for YIEDELRRAA, the Kd stood at 628 nM in the experiment with HLA-A*02:02 (setting [8]), 166 nM with HLA-A*02:03 (setting [8]) and 204 nM in the experiment with HLA-A*02:06 (setting [8]).

On to YISRDELWA, for which the results for the Kd with HLA-A*02:02 (setting [8]), in the experiment with HLA-A*02:03 (setting [8]) and in the experiment with HLA-A*02:06 (setting [8]) were 333 nM, 242 nM and 1200 nM, respectively.

In the experiment with HLA-A*02:01 [2], YLYQPCDLL displayed a Kd of 0.2 nM.

The record behind these values is the Immune Epitope Database (IEDB).
